These results are taken from publication PMC2599807 (Biochemistry, 2008).

This data set concerns the molecule itself. In words: SEC + other: dynamic light scattering.

B1: O. brevis BxmR (CPx-ATPase metal-regulated repressor), wild-type (natural protein, Oscillatoria brevis, UniProt Q76L30 1-136, looked up)
chain: MSPKSAVNGAISQPHQENDTPTCDRAHLVDCSRVGDIQTQVLNTAKAQRMAEFFSLLGDANRLRLVSVLAKQELCVCDLAATLGMSESAVSHQLRAMRAMRLVSYRKVGRQVFYSLLDRHVLELYRAVAEHLDEES
A word on the stoichiometry N: it is the number of molecules, sites or subunits per partner or assembly. In the case of B1, the “stoichiometry N” value stood at 2.
